Results reported in patent publication US20240269256A1 (HDT BIO, published 2024).

Biological target: enterovirus D68 clade B2 virus (enterovirus D68)
Experiment: cell-based or functional assay

B1: AAA_G12 anti-EV-D68 VHH (recombinant VHH G12) (VHH)
VHH: QVQLVESGGGLVQPGGSLRLSCLASGITFTVYRMAWYRQAPGRQRDLVAEVAPGGGTVAANSVKGRFTISRDSAKNTVDLQMNDLKPDDTAVYYCYARNLFTSGEYWGQGTQVTVSS
  50% inhibitory concentrations (IC50), neutralization by real time cell analysis (RTCA) assay: ~1 nM
